Experiments:
Pbx1a;Prep1 [1] = biological target: T1, Pbx1a;Prep1 (;, UniProt P41778;P55347 1-430;1-436, |); assay: competition
T1 sequence 1: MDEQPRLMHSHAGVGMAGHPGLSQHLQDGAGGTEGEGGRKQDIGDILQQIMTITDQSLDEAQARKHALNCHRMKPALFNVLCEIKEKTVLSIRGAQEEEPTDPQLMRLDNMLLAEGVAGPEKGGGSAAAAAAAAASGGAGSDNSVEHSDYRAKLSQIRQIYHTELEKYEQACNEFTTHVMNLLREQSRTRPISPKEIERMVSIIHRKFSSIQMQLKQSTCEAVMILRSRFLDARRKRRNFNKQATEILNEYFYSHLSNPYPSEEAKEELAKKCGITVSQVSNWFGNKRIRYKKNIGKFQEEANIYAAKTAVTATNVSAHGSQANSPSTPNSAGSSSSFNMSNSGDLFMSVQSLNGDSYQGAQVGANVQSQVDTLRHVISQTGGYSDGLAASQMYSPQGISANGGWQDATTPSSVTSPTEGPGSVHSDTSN
T1 sequence 2: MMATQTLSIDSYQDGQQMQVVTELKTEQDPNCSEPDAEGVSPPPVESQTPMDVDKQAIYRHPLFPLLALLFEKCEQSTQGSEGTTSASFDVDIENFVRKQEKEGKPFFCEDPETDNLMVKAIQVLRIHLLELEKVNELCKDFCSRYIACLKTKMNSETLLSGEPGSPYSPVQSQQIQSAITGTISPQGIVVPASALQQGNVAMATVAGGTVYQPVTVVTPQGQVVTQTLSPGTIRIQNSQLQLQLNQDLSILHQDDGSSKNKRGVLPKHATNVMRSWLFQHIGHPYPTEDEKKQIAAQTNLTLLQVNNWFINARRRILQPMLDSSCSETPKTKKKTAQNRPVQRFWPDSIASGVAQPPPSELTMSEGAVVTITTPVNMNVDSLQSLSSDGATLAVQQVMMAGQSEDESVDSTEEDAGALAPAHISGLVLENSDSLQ

Hoxa2;Pbx1a [2] = biological target: T2, Hoxa2;Pbx1a (mouse?;, UniProt P31245;P41778 1-372;1-430, |); assay: competition
T2 sequence (P31245 whole entry, one chain of several): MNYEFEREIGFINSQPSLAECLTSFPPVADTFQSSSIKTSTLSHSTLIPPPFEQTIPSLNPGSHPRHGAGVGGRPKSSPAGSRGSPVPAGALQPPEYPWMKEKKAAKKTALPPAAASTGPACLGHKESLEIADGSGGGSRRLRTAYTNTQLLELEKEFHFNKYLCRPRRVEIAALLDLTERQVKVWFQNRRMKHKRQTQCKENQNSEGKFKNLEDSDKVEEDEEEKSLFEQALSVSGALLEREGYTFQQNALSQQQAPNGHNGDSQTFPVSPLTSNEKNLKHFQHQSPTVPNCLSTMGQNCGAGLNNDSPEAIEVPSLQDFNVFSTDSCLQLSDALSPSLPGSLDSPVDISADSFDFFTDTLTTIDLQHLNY

Hoxa2(QN-AA) (Hoxa2*) = Hoxa2(QN-AA) (Hoxa2*) (UniProt P31245 1-372, Q188A;N189A); assay: EMSA
Chain of Hoxa2(QN-AA) (Hoxa2*) (P31245 whole entry Q188A/N189A): as the sequence (P31245 whole entry, one chain of several) above, with Q188A, N189A counted along it

Hoxa1 = Hoxa1 (UniProt P09022 1-331); assay: EMSA
Chain of Hoxa1 (P09022 whole entry): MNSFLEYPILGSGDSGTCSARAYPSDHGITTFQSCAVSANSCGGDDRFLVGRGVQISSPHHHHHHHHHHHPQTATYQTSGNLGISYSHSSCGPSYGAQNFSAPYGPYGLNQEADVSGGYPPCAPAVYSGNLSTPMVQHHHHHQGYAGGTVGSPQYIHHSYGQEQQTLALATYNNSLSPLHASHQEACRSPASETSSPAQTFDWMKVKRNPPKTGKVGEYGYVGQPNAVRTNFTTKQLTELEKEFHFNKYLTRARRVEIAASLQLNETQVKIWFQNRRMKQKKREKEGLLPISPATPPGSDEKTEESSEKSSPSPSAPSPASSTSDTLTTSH

Hoxa1(WM-AA) = Hoxa1(WM-AA) (UniProt P09022 1-331, W203A;M204A); assay: EMSA
Chain of Hoxa1(WM-AA) (P09022 whole entry W203A/M204A): as the sequence (P09022 whole entry) above, with W203A, M204A counted along it

Hoxa1(WM-AA);Pbx1a = Hoxa1(WM-AA);Pbx1a (mouse?;, UniProt P09022;P41778 1-331;1-430, W203A;M204A|); assay: EMSA
Chain of Hoxa1(WM-AA);Pbx1a (P09022 whole entry W203A/M204A, one chain of several): as the sequence (P09022 whole entry) above, with W203A, M204A counted along it

[3] = biological target: Hoxa2(QN-AA) (Hoxa2*);Pbx1a (mouse?;, UniProt P31245;P41778 1-372;1-430, Q188A;N189A|); assay: EMSA
Chain of Hoxa2(QN-AA) (Hoxa2*);Pbx1a (P31245 whole entry Q188A/N189A, one chain of several): as the sequence (P31245 whole entry, one chain of several) above, with Q188A, N189A counted along it

Pbx1a;Prep1 [4] = biological target: T1, Pbx1a;Prep1; assay: EMSA
Hoxa2;Pbx1a [5] = biological target: T2, Hoxa2;Pbx1a; assay: EMSA
Hoxa2 = Hoxa2 (UniProt P31245 1-372); assay: EMSA
Chain of Hoxa2 (P31245 whole entry): as the sequence (P31245 whole entry, one chain of several) above

Measured: binding result

B1: comp* (unlabelled mutated HRE) (dsDNA)
DNA 1: TTTCAAAGTTGGTGGGGGAAGACCTCG
DNA 2: CGAGGTCTTCCCCCACCAACTTTGAAA
no binding: Pbx1a;Prep1 [1] | Hoxa2;Pbx1a [2]

B2: HRE (dsDNA)
DNA 1: TTTCAAAGTTCATCAATCAAGACCTCG
DNA 2: CGAGGTCTTGATTGATGAACTTTGAAA
no binding: Hoxa2(QN-AA) (Hoxa2*) | Hoxa1 | Hoxa1(WM-AA) | Hoxa1(WM-AA);Pbx1a | [3]

B3: HRE* (mutated HRE) (dsDNA)
DNA 1: TTTCAAAGTTGGTGGGGGAAGACCTCG
DNA 2: CGAGGTCTTCCCCCACCAACTTTGAAA
no binding: Pbx1a;Prep1 [4] | Hoxa2;Pbx1a [5] | Hoxa2

From publication PMC2425489
